Experimental data published in ChEMBL document CHEMBL2073804, “Transport of the beta -O-glucuronide conjugate of the tobacco-specific carcinogen 4-(methylnitrosamino)-1-(3-pyridyl)-1-butanol (NNAL) by the multidrug resistance protein 1 (MRP1). Requirement for glutathione or a non-sulfur-containing analog” (J Biol Chem, 2001).

Substrate: CN(CCCC(C[C@@H]1O[C@H](C(=O)O)[C@@H](O)[C@H](O)[C@H]1O)c1cccnc1)N=O
Test: TP_TRANSPORTER: uptake, in the presence of GSH in membrane vesicle from MRP1-expressing T5 HeLa cell
Type: functional, cell membranes

B1: Multidrug resistance-associated protein 1 (Homo sapiens) (protein)
chain: MALRGFCSADGSDPLWDWNVTWNTSNPDFTKCFQNTVLVWVPCFYLWACFPFYFLYLSRHDRGYIQMTPLNKTKTALGFLLWIVCWADLFYSFWERSRGIFLAPVFLVSPTLLGITMLLATFLIQLERRKGVQSSGIMLTFWLVALVCALAILRSKIMTALKEDAQVDLFRDITFYVYFSLLLIQLVLSCFSDRSPLFSETIHDPNPCPESSASFLSRITFWWITGLIVRGYRQPLEGSDLWSLNKEDTSEQVVPVLVKNWKKECAKTRKQPVKVVYSSKDPAQPKESSKVDANEEVEALIVKSPQKEWNPSLFKVLYKTFGPYFLMSFFFKAIHDLMMFSGPQILKLLIKFVNDTKAPDWQGYFYTVLLFVTACLQTLVLHQYFHICFVSGMRIKTAVIGAVYRKALVITNSARKSSTVGEIVNLMSVDAQRFMDLATYINMIWSAPLQVILALYLLWLNLGPSVLAGVAVMVLMVPVNAVMAMKTKTYQVAHMKSKDNRIKLMNEILNGIKVLKLYAWELAFKDKVLAIRQEELKVLKKSAYLSAVGTFTWVCTPFLVALCTFAVYVTIDENNILDAQTAFVSLALFNILRFPLNILPMVISSIVQASVSLKRLRIFLSHEELEPDSIERRPVKDGGGTNSITVRNATFTWARSDPPTLNGITFSIPEGALVAVVGQVGCGKSSLLSALLAEMDKVEGHVAIKGSVAYVPQQAWIQNDSLRENILFGCQLEEPYYRSVIQACALLPDLEILPSGDRTEIGEKGVNLSGGQKQRVSLARAVYSNADIYLFDDPLSAVDAHVGKHIFENVIGPKGMLKNKTRILVTHSMSYLPQVDVIIVMSGGKISEMGSYQELLARDGAFAEFLRTYASTEQEQDAEENGVTGVSGPGKEAKQMENGMLVTDSAGKQLQRQLSSSSSYSGDISRHHNSTAELQKAEAKKEETWKLMEADKAQTGQVKLSVYWDYMKAIGLFISFLSIFLFMCNHVSALASNYWLSLWTDDPIVNGTQEHTKVRLSVYGALGISQGIAVFGYSMAVSIGGILASRCLHVDLLHSILRSPMSFFERTPSGNLVNRFSKELDTVDSMIPEVIKMFMGSLFNVIGACIVILLATPIAAIIIPPLGLIYFFVQRFYVASSRQLKRLESVSRSPVYSHFNETLLGVSVIRAFEEQERFIHQSDLKVDENQKAYYPSIVANRWLAVRLECVGNCIVLFAALFAVISRHSLSAGLVGLSVSYSLQVTTYLNWLVRMSSEMETNIVAVERLKEYSETEKEAPWQIQETAPPSSWPQVGRVEFRNYCLRYREDLDFVLRHINVTINGGEKVGIVGRTGAGKSSLTLGLFRINESAEGEIIIDGINIAKIGLHDLRFKITIIPQDPVLFSGSLRMNLDPFSQYSDEEVWTSLELAHLKDFVSALPDKLDHECAEGGENLSVGQRQLVCLARALLRKTKILVLDEATAAVDLETDDLIQSTIRTQFEDCTVLTIAHRLNTIMDYTRVIVLDKGEIQEYGAPSDLLQQRGLFYSMAKDAGLV
B1 was tested, and the Km was 39 µM.
